Assay results taken from the supplement of paper PMC7877785.
± gives the uncertainty stated by the source.

Test: self-splicing fitness, log relative to wild type (ln ratio); higher = more splicing; Tetrahymena group I intron in knt gene, E. coli kanamycin selection, DiMSum; sequences stand for … in CUCUCU…GGAGGGAAAAGUUAUCAGGCAUGCACCUGGUAGCUAGUCUUUAAACCAAUAGAUUGCAUCGGUUUAAAAGGCAAGACCGUCAAAUUGCGGGAAAGGGGUCAACAGCCGUUCAGUACCAAGUCUCAGGGGAAACUUUGAGAUGGCCUUGCAAAGGGUAUGGUAAUAAGCUGACGGACAUGGUCCUAACCACGCAGCCAAGUCCUAAGUCAACAGAUCUUCUGUUGAUAUGGAUGCAGUUCACAGACUAAAUGUCGGUCGGGGAAGAUGUAUUCUUCUCAUAAGAUAUAGUCGGACCUCUCCUUAAUGGGAGCUAGCGGAUGAAGUGAUGCAACACUGGAGCCGCUGGGAACUAAUUUGUAUGCGAAAGUAUAUUGAUUAGUUUUGGAGUACUCGUGGUCG
Method in brief: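 Six replicate transformations of E. coli BL21(DE3) with a pET-22b(+) library were grown overnight at 37°C or 30°C. The library randomised all eight P1ex-region intron nucleotides, the intron lying in the knt kanamycin-resistance gene, and plates were LB agar with or without 25 μg/mL kanamycin plus 100 μg/mL carbenicillin, 50 μM IPTG and 0.2% rhamnose. Pooled colonies were amplicon-sequenced on an Illumina HiSeq 2500, and fitness is the DiMSum error-weighted combination of wild-type-normalised replicate fold changes, kanamycin versus none.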

Row | Sequence | self-splicing fitness (ln) (30 °C) | self-splicing fitness (ln) (37 °C)
1 | CCAAAGCAAUAUUACGACUA | -2.34 ± 0.23 | -2.7 ± 0.29
2 | CCAAAGCAAUAUUACGACUG | -0.588 ± 0.071 | -0.0799 ± 0.091
3 | CCAAAGCAAUAUUACGAUUC | -3 ± 0.31 | -1.71 ± 0.34
4 | CCAAAGCAAUAUUACGAUUU | -3.85 ± 0.2 | -1.98 ± 0.19
5 | CCAAAGCAAUAUUACGCUAA | -2.86 ± 0.23 | -2.7 ± 0.3
6 | CCAAAGCAAUAUUACGGAAU | -4.11 ± 0.39 | -2.95 ± 0.22
7 | CCAAAGCAAUAUUACGGGGA | -3.41 ± 0.16 | -2.93 ± 0.17
8 | CCAAAGCAAUAUUACGGGUU | -2.96 ± 0.15 | -2.5 ± 0.16
9 | CCAAAGCAAUAUUACGGUAU | -3.41 ± 0.18 | -2.08 ± 0.25
10 | CCAAAGCAAUAUUACGGUCG | -0.306 ± 0.066 | -0.674 ± 0.077
11 | CCAAAGCAAUAUUACGGUGA | -3.77 ± 0.25 | -4.04 ± 0.34
12 | CCAAAGCAAUAUUACGGUGC | -4.01 ± 0.16 | -2.19 ± 0.13
13 | CCAAAGCAAUAUUACGUAAC | -4.73 ± 0.27 | -2.72 ± 0.28
14 | CCAAAGCAAUAUUACGUCCG | -0.225 ± 0.11 | -0.354 ± 0.14
15 | CCAAAGCAAUAUUACGUCUC | -3.08 ± 0.13 | -2.89 ± 0.092
16 | CCAAAGCAAUAUUACGUGUA | -3.72 ± 0.14 | -1.97 ± 0.12
17 | CCAAAGCAAUAUUACGUGUU | -3.49 ± 0.11 | -1.56 ± 0.09
18 | CCAAAGCAAUAUUACGUUAA | -3.93 ± 0.26 | -1.97 ± 0.22
19 | CCAAAGCAAUAUUACGUUAG | -1.89 ± 0.071 | -0.652 ± 0.073
20 | CCAAAGCAAUAUUACGUUCG | -0.496 ± 0.055 | 0.165 ± 0.069
21 | CCAAAGCAAUAUUACGUUUG | -2.93 ± 0.089 | -1.43 ± 0.086
22 | CCACAGCAAUAUUACGAAGA | -1.5 ± 0.15 | -2.55 ± 0.24
23 | CCACAGCAAUAUUACGAAGC | -3.85 ± 0.2 | -2.3 ± 0.15
24 | CCACAGCAAUAUUACGAAGG | -3.62 ± 0.13 | -2.92 ± 0.16
25 | CCACAGCAAUAUUACGACAG | -1.06 ± 0.083 | -0.0398 ± 0.088
26 | CCACAGCAAUAUUACGACUC | -2.46 ± 0.18 | -2.76 ± 0.3

Row | Sequence | self-splicing fitness (ln) (30 °C) | self-splicing fitness (ln) (37 °C)
27 | CCACAGCAAUAUUACGAGCU | -3.67 ± 0.15 | -2.4 ± 0.15
28 | CCACAGCAAUAUUACGAGUU | -2.76 ± 0.09 | -2.76 ± 0.12
29 | CCACAGCAAUAUUACGCACA | -2.44 ± 0.15 | -2.33 ± 0.25
30 | CCACAGCAAUAUUACGCACG | -0.551 ± 0.063 | -0.626 ± 0.093
31 | CCACAGCAAUAUUACGCCUA | -2.47 ± 0.28 | -2.79 ± 0.34
32 | CCACAGCAAUAUUACGCUCA | -2.89 ± 0.21 | -2.41 ± 0.27
33 | CCACAGCAAUAUUACGCUCU | -4.07 ± 0.17 | -2.1 ± 0.16
34 | CCACAGCAAUAUUACGCUUG | -2.66 ± 0.075 | -1.96 ± 0.083
35 | CCACAGCAAUAUUACGGAUC | -4.54 ± 0.34 | -2.8 ± 0.27
36 | CCACAGCAAUAUUACGGCAA | -2.92 ± 0.29 | -2.74 ± 0.32
37 | CCACAGCAAUAUUACGGCAU | -3.72 ± 0.16 | -2.54 ± 0.18
38 | CCACAGCAAUAUUACGGCCC | -2.78 ± 0.29 | 
39 | CCACAGCAAUAUUACGGCUG | -3.26 ± 0.15 | -2.48 ± 0.15
40 | CCACAGCAAUAUUACGGUCG | -0.147 ± 0.066 | 0.437 ± 0.086
41 | CCACAGCAAUAUUACGGUCU | -3.44 ± 0.11 | -1.87 ± 0.12
42 | CCACAGCAAUAUUACGUAAA | -3.84 ± 0.17 | -2.06 ± 0.18
43 | CCACAGCAAUAUUACGUAGA | -2.28 ± 0.085 | -1.5 ± 0.12
44 | CCACAGCAAUAUUACGUCAU | -3.67 ± 0.16 | -2.81 ± 0.16
45 | CCACAGCAAUAUUACGUGUU | -3.75 ± 0.1 | -3.15 ± 0.14
46 | CCAGAGCAAUAUUACGAACC | -2.33 ± 0.28 | -1.77 ± 0.38
47 | CCAGAGCAAUAUUACGAAGA | -3.48 ± 0.31 | -2.84 ± 0.43
48 | CCAGAGCAAUAUUACGAAUC | -3.76 ± 0.26 | -2.74 ± 0.27
49 | CCAGAGCAAUAUUACGACCU | -2.54 ± 0.23 | -3.29 ± 0.39
50 | CCAGAGCAAUAUUACGCAAU | -2.14 ± 0.2 | -2.05 ± 0.31
51 | CCAGAGCAAUAUUACGCCAA |  | -3.04 ± 0.47
52 | CCAGAGCAAUAUUACGCCAG | -3.07 ± 0.25 | 

Row | Sequence | self-splicing fitness (ln) (30 °C) | self-splicing fitness (ln) (37 °C)
53 | CCAGAGCAAUAUUACGCCUC | -3.12 ± 0.31 | 0.134 ± 0.26
54 | CCAGAGCAAUAUUACGGGAA |  | 0.0973 ± 0.28
55 | CCAGAGCAAUAUUACGGGCC | -2.83 ± 0.22 | -2.55 ± 0.26
56 | CCAGAGCAAUAUUACGGGUA | -2.35 ± 0.29 | -2.3 ± 0.3
57 | CCAGAGCAAUAUUACGGUGC | -2.81 ± 0.14 | -2.28 ± 0.23
58 | CCAGAGCAAUAUUACGUAAA | -2.75 ± 0.2 | -1.29 ± 0.3
59 | CCAGAGCAAUAUUACGUAAG | -1.59 ± 0.097 | -0.37 ± 0.12
60 | CCAGAGCAAUAUUACGUAUG | -2.22 ± 0.11 | -1.77 ± 0.12
61 | CCAGAGCAAUAUUACGUCGC | -3.95 ± 0.32 | -2.49 ± 0.29
62 | CCAGAGCAAUAUUACGUCUG | -3.53 ± 0.2 | -1.63 ± 0.14
63 | CCAGAGCAAUAUUACGUUGA | -2.69 ± 0.22 | -3.35 ± 0.24
64 | CCAUAGCAAUAUUACGAGAU | -3.81 ± 0.35 | -2.12 ± 0.21
65 | CCAUAGCAAUAUUACGAUAA |  | -3.15 ± 0.4
66 | CCAUAGCAAUAUUACGAUCU | -3.15 ± 0.34 | -2.96 ± 0.44
67 | CCAUAGCAAUAUUACGAUGC | -3.11 ± 0.17 | -1.88 ± 0.17
68 | CCAUAGCAAUAUUACGAUUA | -3.12 ± 0.32 | -2.54 ± 0.28
69 | CCAUAGCAAUAUUACGCACU | -3.41 ± 0.4 | -3.05 ± 0.34
70 | CCAUAGCAAUAUUACGCAUG | -3.37 ± 0.19 | -0.732 ± 0.13
71 | CCAUAGCAAUAUUACGCAUU | -3.65 ± 0.26 | -2.84 ± 0.36
72 | CCAUAGCAAUAUUACGCUUU | -4.72 ± 0.28 | -3.1 ± 0.2
73 | CCAUAGCAAUAUUACGGGAC |  | -2.82 ± 0.28
74 | CCAUAGCAAUAUUACGUAAC |  | -2.7 ± 0.29
75 | CCAUAGCAAUAUUACGUACC | -3.95 ± 0.47 | -2.21 ± 0.36
76 | CCAUAGCAAUAUUACGUAUG | -3.88 ± 0.15 | -2.19 ± 0.13
77 | CCAUAGCAAUAUUACGUCCU | -2.86 ± 0.23 | -2.64 ± 0.48
